Data on one molecule can be found in article PMC12048488.

In the experiment the target is HTT-Q20 (endogenous knock-in huntingtin: mouse Htt with humanized HTT exon 1, normal polyQ) (human | mouse). Kind of experiment: affinity purification with mass spectrometry; evaluation of antibodies: IP-MS from whole brain and striatum lysates of 8-week Q20 and Q140 mice with EPR5526, 2B7-4C9, 4E10-3E10 or 138-139 antibodies against mIgG controls.

B1: HAP40 (F8a1), Huntingtin-associated protein 40 (natural protein)
chain: MAAGSASSLGGGAWPGSEAGDFLARYRQVSNKLKKRFLRKPNVAEAGEQFAQLARELRAQECLPYAAWCQLAVARCQQALFHGPGEALALTEAARLFLRQECDARQRLGCPAAYGEPLQAAASALGAAVRLHLELGQPAAAAALCLELAAALRAVGQPAAAAGHFQRAAQLHLPLMPLAALQALGDAASCQLLARDYTGALALFTRMQRLAREHGGHPVQQLELLPQPPSGPQPPLSGPQPRPVLGSTLPLPQPPDHAPGSVAPSPGTLGAFADVLVRCEVSRVLLLLLLQPPPAKLLPEHAQTLEKYSWEAFDGHGQDTSGQLPEELFLLLQSLVMAAQEKDTEGIKKLQVEMWPLLTAEQNHLLHLVLQETISPSGQGV
Turning to B1, the stoichiometry N (HTT:HAP40 ratio) is 1.
